Laboratory results: patent CN114437205A (DOMA MEDICINE TECH SUZHOU LIMITED COMPANY, dated 2022)

Biological target: SARS-CoV-2-S2 ECD-his (Acro, S2N-C52H5) (SARS-CoV-2, UniProt P0DTC2 686-1213)
Assay: ELISA

B1: 抗体CT150 (antibody, V domains shown)
VH: QEQLVESGGGVVQPGRSLRLSCAASGFTFSSYAMHWVRQAPGEGLEWVALISYDGDNKYYADSVKGRFTISRDNSKTTLFLQMNSLRAEDTAVYYCARDRGSYFYGVDVWGQGATVTVSS
VL: DIQLTQSPSFLSASVGDRVTITCRASQDINSYLAWYQQKPGKAPKLLIYAASTLQSGVPSRFSGSGSGTEFTLTISSLQPEDFATYYCQQLNSYPIFTFGPGTKVDIK
  EC50: 8.18 ng/mL
